According to patent US20180155405A1 (AB INITIO BIOTHERAPEUTICS, published 2018):
Where two headings read alike, the source gives them in different places.

Key:
[1] = target: T1, CD47 on human cells (CD47+, PDL1+); test: in vivo receptor occupancy: NSG mice injected with GV3 on three consecutive days, spleen cells harvested 1 hr and 24 hrs after the last injection, free CD47 read by SIRPA-tetramer binding (FACS) on human HL60-Tg(hPDL1, GFP) cells
T1 construct: These cells also carry human PD-L1; also called HL60-Tg(hPDL1, GFP) cells isolated from the spleen; human CD47+ PDL1+ cells

[2] = target: T2, CD47 on the surface of GFP-luciferase+ DLD1-Tg cells (UniProt Q08722 19-323, limits assumed)
T2 construct: whole, on cells; also called CD47+ cells; CD47+ PD-L1+ cells

human PD-L1 = target: T3, human PD-L1 (human, UniProt Q9NZQ7 19-239, limits assumed, biotinylated in Examples 4 and 5); test: SPR, HGV3 held on chip-captured biotinylated human CD47, then PD-L1 injected; the PD-L1 concentration is not shown
T3 construct: also called biotinylated human PD-L1

[3] = target: T4, CD47 on total splenic cells; test: in vivo receptor occupancy: NSG mice injected with GV3 on three consecutive days, spleen cells harvested 1 hr and 24 hrs after the last injection, free CD47 read by SIRPA-tetramer binding (FACS)
T4 construct: also called % occupied CD47
T4 sequence (Q61735 whole entry, species assumed, looked up): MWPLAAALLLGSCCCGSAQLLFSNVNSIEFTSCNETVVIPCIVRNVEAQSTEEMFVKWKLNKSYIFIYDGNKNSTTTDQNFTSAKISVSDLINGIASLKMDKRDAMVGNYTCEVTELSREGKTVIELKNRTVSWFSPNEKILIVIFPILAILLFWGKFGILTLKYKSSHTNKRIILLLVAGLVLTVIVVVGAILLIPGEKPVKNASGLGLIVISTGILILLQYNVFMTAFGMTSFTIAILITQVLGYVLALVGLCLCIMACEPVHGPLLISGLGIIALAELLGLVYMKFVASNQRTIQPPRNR

[4] = target: T2, CD47 on the surface of GFP-luciferase+ …; test: flow cytometry competition on DLD1-Tg(GFP-Luc) cells (CD47+), competitor 50 nM biotinylated SIRP-alpha tetramer
[5] = target: T5, biotinylated human CD47 (IgSF domain, residues 1-117, C15G) (human, UniProt Q08722 19-135, biotinylated in vitro with BirA ligase on the biotin acceptor peptide tag); test: SPR (Biacore T100), biotinylated CD47 on SA chip, 1:1 Langmuir model
T5 construct: range 1-117; Captured on a Biacore SA chip; also called biotinylated CD47

[6] = target: T6, CD47 on mouse splenocytes (mouse, UniProt Q61735); test: in vivo receptor occupancy: NSG mice injected with GV3 on three consecutive days, spleen cells harvested 1 hr and 24 hrs after the last injection, free CD47 read by SIRPA-tetramer binding (FACS) on mouse splenocytes
T6 construct: cell surface, full length; also called % occupied CD47
T6 sequence (receptor on cells, looked up): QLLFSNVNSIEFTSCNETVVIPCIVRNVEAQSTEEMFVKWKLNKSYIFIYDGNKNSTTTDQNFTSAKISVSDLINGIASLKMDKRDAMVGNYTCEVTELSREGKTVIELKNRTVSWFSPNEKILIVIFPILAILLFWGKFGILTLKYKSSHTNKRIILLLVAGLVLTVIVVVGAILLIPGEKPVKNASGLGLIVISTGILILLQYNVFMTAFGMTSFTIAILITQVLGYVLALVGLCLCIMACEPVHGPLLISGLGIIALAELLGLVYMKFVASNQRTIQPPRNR

T2 sequence (Q08722 19-323 limits assumed): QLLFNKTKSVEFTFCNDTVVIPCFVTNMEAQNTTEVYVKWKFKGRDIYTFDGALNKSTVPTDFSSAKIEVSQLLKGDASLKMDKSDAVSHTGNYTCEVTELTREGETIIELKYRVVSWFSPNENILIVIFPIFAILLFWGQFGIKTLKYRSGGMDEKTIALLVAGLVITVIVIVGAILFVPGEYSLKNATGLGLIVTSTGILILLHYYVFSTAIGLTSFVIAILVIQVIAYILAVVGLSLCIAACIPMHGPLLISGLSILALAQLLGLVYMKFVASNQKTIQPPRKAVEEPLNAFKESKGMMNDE
T5 sequence (Q08722 other isoform, or with tags, fused parts or gaps C15G C15G limits assumed): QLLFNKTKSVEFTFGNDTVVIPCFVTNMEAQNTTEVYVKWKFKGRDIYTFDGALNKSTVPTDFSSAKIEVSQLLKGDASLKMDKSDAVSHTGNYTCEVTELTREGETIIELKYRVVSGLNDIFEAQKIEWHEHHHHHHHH
T1 sequence (chain, as listed by the source limits assumed): as the sequence (Q08722 19-323 limits assumed) above
T3 sequence (Q9NZQ7 19-239 limits assumed): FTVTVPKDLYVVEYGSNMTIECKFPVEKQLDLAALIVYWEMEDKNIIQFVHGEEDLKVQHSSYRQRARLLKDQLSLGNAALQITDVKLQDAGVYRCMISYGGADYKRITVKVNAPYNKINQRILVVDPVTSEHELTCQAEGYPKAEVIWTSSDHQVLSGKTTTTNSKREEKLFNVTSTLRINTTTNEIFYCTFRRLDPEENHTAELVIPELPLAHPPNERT

B1: SIRP-gamma variant GV3 (designed binder)
chain: EEELQIIQPEKLLLVTVGKTATLHCTITSLFPVGPIQWFRGVGPGRVLIYNQKDGHFPRVTTVSDGTKRNNMDFSIRISSITPADVGTYYCVKFRKGSPEDVEFKSGPGTEMALGAKPSHHHHHHHH
notes: Monomers were made as MBP fusions in E. coli and MBP was removed with 3C protease; also called HGV3; human GV3
RO half-life [1]: ~30 h
IC50 (read off the curve) [2]: ~1 nM
binding result (human PD-L1): no binding
RO half-life [3]: ~10 h
IC50 (read off the curve) [4]: ~0.7 nM
Kd [5]: 0.092 nM
dissociation half-life T1/2 [5]: ~0.733 h
RO half-life [6]: ~5 h
